This note sets out measurements from US20210355204A1.

Experiment [1] concerns the target TGFβ1 (human) (UniProt P01137). Briefly: cell-based or functional assay.
For experiment [2], the target named is TGFβ2 (human) (UniProt P61812). Briefly: cell-based or functional assay.
Experiment [3] concerns the target TGFβ3 (human) (UniProt P10600). As to the kind of experiment: cell-based or functional assay.
Experiment [4] deals with TGFβ1 (human) (UniProt P01137). As to the kind of experiment: SPR (Biacore 2000), TGFβ immobilised on CM1 chip, antibody injected. On the technique in general: SPR reads the build-up and loss of mass on a sensor chip optically.
The target of experiment [5] is TGFβ2 (human) (UniProt P61812). The description is as above.
For experiment [6], the target named is TGFβ3 (human) (UniProt P10600). Described as above.
For experiment [7], the target named is TGFβ1 (human) (UniProt P01137). Briefly: SPR (Biacore A100), BM-1 captured on anti-mouse Fc CM5 chip, TGFβ injected.
For experiment [8], the target named is TGFβ2 (human) (UniProt P61812). Described as above.
Experiment [9] deals with TGFβ3 (human) (UniProt P10600). Described as above.

Chain of TGFβ3 (human) (P10600 301-412 limits assumed): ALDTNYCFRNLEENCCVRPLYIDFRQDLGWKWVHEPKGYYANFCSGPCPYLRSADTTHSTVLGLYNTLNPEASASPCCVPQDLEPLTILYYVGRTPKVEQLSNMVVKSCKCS
Chain of TGFβ1 (human) (P01137 279-390 limits assumed): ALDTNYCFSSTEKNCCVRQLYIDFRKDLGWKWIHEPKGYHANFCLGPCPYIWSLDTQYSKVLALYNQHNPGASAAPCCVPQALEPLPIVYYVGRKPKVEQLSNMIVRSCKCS
Chain of TGFβ2 (human) (P61812 303-414 limits assumed): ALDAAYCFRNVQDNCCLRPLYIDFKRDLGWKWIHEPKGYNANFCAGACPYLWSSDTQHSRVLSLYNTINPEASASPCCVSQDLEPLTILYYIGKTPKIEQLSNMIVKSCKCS

B1: BM-1 (1D11, R&D Systems MAB1835) (antibody, from another filing, V domains shown)
VH: QVQLQQSGPELVRPGASVKLSCKASGYIFITYWMNWVKQRPGQGLEWIGQIFPASGSTNYNEMFEGKATLTVDTSSSTAYMQLSSLTSEDSAVYYCARGDGNYALDAMDYWGQGTSVTVSS
VL: DIVLTQSPASLAVSLGQRATISCRASESVDSYGNSFMHWYQQKSGQPPKLLIYLASNLESGVPARFSGSGSRTDFTLTIDPVEADDAATYYCQQNNEDPLTFGAGTKLEIK
For B1, the HT-2 cell neutralization assay, IC50 in the experiment with TGFβ1 (human) [1] stood at 220; with TGFβ3 (human) [3], 196. Further, the figures for the IL-11 Release Assay - IC50 (A549 cells) in the experiment with TGFβ1 (human) [1], with TGFβ2 (human) [2] and in the experiment with TGFβ3 (human) [3] were 0.292 µg/mL, 0.498 µg/mL and 0.012 µg/mL, respectively. Besides, the equilibrium dissociation constant (Kd) (usually a measure of binding affinity in units of concentration) turned out to be 0.304 nM with TGFβ1 (human) [4]; 0.977 nM in the experiment with TGFβ2 (human) [5]; 0.188 nM with TGFβ3 (human) [6]; 0.072 nM in the experiment with TGFβ1 (human) [7]; 0.17 nM with TGFβ2 (human) [8]; 0.048 nM in the experiment with TGFβ3 (human) [9]. Also, the koff – broadly, the rate constant with which the complex falls apart – with TGFβ1 (human) [4] amounted to 0.0039 s⁻¹; with TGFβ2 (human) [5], 0.00684 s⁻¹; with TGFβ3 (human) [6], 0.000946 s⁻¹; in the experiment with TGFβ1 (human) [7] it was 0.0014 s⁻¹; in the experiment with TGFβ2 (human) [8], 0.002 s⁻¹; in the experiment with TGFβ3 (human) [9], 0.00031 s⁻¹. The on-rate (kon) (as a rule, the second-order rate constant of association) with TGFβ1 (human) [4] worked out at 1.28e+07 M⁻¹ s⁻¹; with TGFβ2 (human) [5], 7e+06 M⁻¹ s⁻¹; with TGFβ3 (human) [6] it was 5.05e+06 M⁻¹ s⁻¹; with TGFβ1 (human) [7], 1.9e+07 M⁻¹ s⁻¹; in the experiment with TGFβ2 (human) [8] it was 1.1e+07 M⁻¹ s⁻¹; in the experiment with TGFβ3 (human) [9], 6.5e+06 M⁻¹ s⁻¹.
